Measurements: paper PMC5155689, “Pro-invasive Effect of Proto-oncogene PBF Is Modulated by an Interaction with Cortactin” (The Journal of Clinical Endocrinology and Metabolism, 2016)

Target: T1, Y174A PBF-HA (UniProt P53801 33-180, Y174A)
T1 construct: also called PBF mutant Y174A; phospho-null PBF mutant (Y174A)
T1 sequence (looked up): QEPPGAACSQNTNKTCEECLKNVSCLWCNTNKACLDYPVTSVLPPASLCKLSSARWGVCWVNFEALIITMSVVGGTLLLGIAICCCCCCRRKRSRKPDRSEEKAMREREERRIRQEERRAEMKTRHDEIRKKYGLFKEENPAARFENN
Assay: co-IP; myc-tagged CTTN and HA-tagged PBF (WT or Y174A) transfected in MCF-7 and HeLa cells; in HeLa also after 50 nM dasatinib or vehicle
Settings: partners not purified

- fold change of binding against WT PBF: > 2 fold
B1: human Myc-CTTN (cortactin) (natural protein, UniProt Q14247 1-550, looked up)
chain: MWKASAGHAVSIAQDDAGADDWETDPDFVNDVSEKEQRWGAKTVQGSGHQEHINIHKLRENVFQEHQTLKEKELETGPKASHGYGGKFGVEQDRMDKSAVGHEYQSKLSKHCSQVDSVRGFGGKFGVQMDRVDQSAVGFEYQGKTEKHASQKDYSSGFGGKYGVQADRVDKSAVGFDYQGKTEKHESQRDYSKGFGGKYGIDKDKVDKSAVGFEYQGKTEKHESQKDYVKGFGGKFGVQTDRQDKCALGWDHQEKLQLHESQKDYKTGFGGKFGVQSERQDSAAVGFDYKEKLAKHESQQDYSKGFGGKYGVQKDRMDKNASTFEDVTQVSSAYQKTVPVEAVTSKTSNIRANFENLAKEKEQEDRRKAEAERAQRMAKERQEQEEARRKLEEQARAKTQTPPVSPAPQPTEERLPSSPVYEDAASFKAELSYRGPVSGTEPEPVYSMEAADYREASSQQGLAYATEAVYESAEAPGHYPAEDSTYDEYENDLGITAVALYDYQAAGDDEISFDPDDIITNIEMIDDGWWRGVCKGRYGLFPANYVELRQ
notes: cortactin (CTTN), human; Origene plasmid No. RC223259; the isoform of the clone follows from the catalogue number; also called myc-tagged CTTN; source: plasmid bought: Origene
